Results from the Human Domainome abundance scans (Beltran et al. 2025).
± gives the uncertainty stated by the source.

B1: Zinc finger homeobox protein 3, residues 2643 to 2698; numbered along this chain, Q15911 (parent)
chain: RLRTTITPEQLEILYQKYLLDSNPTRKMLDHIAHEVGLKKRVVQVWFQNTRARERK

Variants of: B1
Assay: abundance fitness (aPCA) (normalised: wild type 0, dead -1); higher = more abundant; growth selection in yeast, the domain comes from the species named
Settings: Homo sapiens

In order of falling abundance fitness:
1. RLRTTITPEQLEILYQKYLLDSNPTRKMLDHIAHEVGLKKDVVQVWFQNTRARERK  0.773 ± 0.18
2. RLRTTITPEQLEILYQKYLLDSNPTRKMLDHIAHEVGLKKRVVQEWFQNTRARERK  0.452 ± 0.097
3. RLRTTITPEQLEILYQKYLLDSNPTRKMLDHIAHEVGLKKREVQVWFQNTRARERK  0.387 ± 0.095
4. RLRTTITPEQLEILYQKYLLDSNPTGKMLDHIAHEVGLKKRVVQVWFQNTRARERK  0.386 ± 0.072
5. NLRTTITPEQLEILYQKYLLDSNPTRKMLDHIAHEVGLKKRVVQVWFQNTRARERK  0.354 ± 0.26
6. RLRTTITPEQLEILYQKYLLDSNPTNKMLDHIAHEVGLKKRVVQVWFQNTRARERK  0.339 ± 0.15
7. RLRTTITPEQLEILYQKYLLDSNPTRKMLDHIAHEVGLKKRVVQVWFQNTRADERK  0.31 ± 0.14
8. RLRTTITPEQLEILYQKYLLDSNPTRKMLDHIAHEVGLKKKVVQVWFQNTRARERK  0.297 ± 0.18
9. RLRTTITPEQLEILYQKYLLDSNPTRKMLDHIAHEVGLKKRVVQVWFQNTRERERK  0.291 ± 0.12
10. CLRTTITPEQLEILYQKYLLDSNPTRKMLDHIAHEVGLKKRVVQVWFQNTRARERK  0.239 ± 0.16
11. RLRTTITPEQLEILYQKYLLDSNPTRKMLDHIAHEVGLPKRVVQVWFQNTRARERK  0.224 ± 0.12
12. RLRTTITPEQLEILYQKYLLDSNPTRKMLDHIAHEVGLKKRVVQVWFQNTRAREQK  0.216 ± 0.18
13. RLRTTITPEQLEILYQKYLLDSNPTRKMLDGIAHEVGLKKRVVQVWFQNTRARERK  0.198 ± 0.075
14. RLLTTITPEQLEILYQKYLLDSNPTRKMLDHIAHEVGLKKRVVQVWFQNTRARERK  0.186 ± 0.095
15. RLRTTITPEQDEILYQKYLLDSNPTRKMLDHIAHEVGLKKRVVQVWFQNTRARERK  0.17 ± 0.11
16. RLRTTITPEQLEILYQKYLLDSNPTRKMIDHIAHEVGLKKRVVQVWFQNTRARERK  0.167 ± 0.13
17. RLRTTITPEQLEILYQKYLLDSNPTRPMLDHIAHEVGLKKRVVQVWFQNTRARERK  0.16 ± 0.1
18. RLRTTITPEQLEILYQKYLLDSNPTRKMLDHIAHEVGLKKRVVQIWFQNTRARERK  0.158 ± 0.11
19. RLRTTITPEQLEILYQKYLLDSNPTRKMLDVIAHEVGLKKRVVQVWFQNTRARERK  0.134 ± 0.08
20. RLRTTITPEQLEILYQKYLLDSNPTRKMLDHIAHEVGLKKRVVQVWFQNTRASERK  0.133 ± 0.086
21. RLRTTITPEQLEILYQKYLLDSNPTRKMLDHIAHEVGLKKRVVQVWFQNTRAREPK  0.105 ± 0.14
22. RLRTTIPPEQLEILYQKYLLDSNPTRKMLDHIAHEVGLKKRVVQVWFQNTRARERK  0.101 ± 0.14
23. RLRTTITPEQLEILYQKYLLDPNPTRKMLDHIAHEVGLKKRVVQVWFQNTRARERK  0.099 ± 0.13
24. RLRTTITPEQLEILYQKYLLDSNPTRKMLDHIAHEVGLKIRVVQVWFQNTRARERK  0.093 ± 0.17
25. RFRTTITPEQLEILYQKYLLDSNPTRKMLDHIAHEVGLKKRVVQVWFQNTRARERK  0.082 ± 0.16
26. RLRTTITPEQLEILYQKYLLDSNPTRKMLDHIAHEVGLKKHVVQVWFQNTRARERK  0.031 ± 0.19
27. RLRTTITPEQLEILLQKYLLDSNPTRKMLDHIAHEVGLKKRVVQVWFQNTRARERK  0.016 ± 0.09
28. RLRTTITPEQLEILYQEYLLDSNPTRKMLDHIAHEVGLKKRVVQVWFQNTRARERK  0.007 ± 0.12
29. RLRTTITPEQLEILYQKYLVDSNPTRKMLDHIAHEVGLKKRVVQVWFQNTRARERK  0.002 ± 0.094
30. RLRTTITPEQLEILYQKYLLDSNPTRKMLDHIAHEVGLKKRVVQVWFQNTRALERK  -0.006 ± 0.08
31. RHRTTITPEQLEILYQKYLLDSNPTRKMLDHIAHEVGLKKRVVQVWFQNTRARERK  -0.006 ± 0.2
32. RLRTTITPEQLEILYQKYLLDSNPTRVMLDHIAHEVGLKKRVVQVWFQNTRARERK  -0.007 ± 0.081
33. RLRTTITPEQLEILYQKYLLDSNPTRKMLDHIAHQVGLKKRVVQVWFQNTRARERK  -0.016 ± 0.1
34. RLRTTITPEQLEILYQKYLLDSNPTRKMLDHIAQEVGLKKRVVQVWFQNTRARERK  -0.017 ± 0.1
35. RLRTTITPEQVEILYQKYLLDSNPTRKMLDHIAHEVGLKKRVVQVWFQNTRARERK  -0.021 ± 0.076
36. RLRTTITPEQLEILYQKYLCDSNPTRKMLDHIAHEVGLKKRVVQVWFQNTRARERK  -0.022 ± 0.12
37. RLRTTITPEQLEILYQKYLLDGNPTRKMLDHIAHEVGLKKRVVQVWFQNTRARERK  -0.034 ± 0.07
38. RLRNTITPEQLEILYQKYLLDSNPTRKMLDHIAHEVGLKKRVVQVWFQNTRARERK  -0.042 ± 0.2
39. RLRTTITPDQLEILYQKYLLDSNPTRKMLDHIAHEVGLKKRVVQVWFQNTRARERK  -0.042 ± 0.092
40. RLRTTITPEQLEILYQKYLLDSNPTRKMLAHIAHEVGLKKRVVQVWFQNTRARERK  -0.046 ± 0.084
41. RLRTTITPEQLEILYQKYLIDSNPTRKMLDHIAHEVGLKKRVVQVWFQNTRARERK  -0.056 ± 0.17
42. RLRTTITPEQLEILYQKYLLDSNPTRKMLDHIAHEVGLKKRMVQVWFQNTRARERK  -0.068 ± 0.11
43. RLRTTITPEQLEILYQKYLLDSNPTRKMLDHIAHEVGLKKRVVQVWFQNHRARERK  -0.11 ± 0.17
44. RLRTTITPEQLEILYQKYLLDSNPTRKMLDHIAHEVQLKKRVVQVWFQNTRARERK  -0.147 ± 0.1
45. RLRTTITPEQLEILYQKYLLDSNPTRKMLDHIAHEVGLNKRVVQVWFQNTRARERK  -0.153 ± 0.14
46. RLRTVITPEQLEILYQKYLLDSNPTRKMLDHIAHEVGLKKRVVQVWFQNTRARERK  -0.172 ± 0.089
47. RLRTTITPEQLEILYQKYLLDSNPTRKMLDHIAHEVGLKKRVVVVWFQNTRARERK  -0.179 ± 0.085
48. RLRTTITPEQLEILYQKYLLDSNPNRKMLDHIAHEVGLKKRVVQVWFQNTRARERK  -0.206 ± 0.2
49. RLRTTITPEQLEILYQKYLLDSNPTRKMLDHIAHEVGLKKRVVTVWFQNTRARERK  -0.209 ± 0.098
50. RLRTTITPEALEILYQKYLLDSNPTRKMLDHIAHEVGLKKRVVQVWFQNTRARERK  -0.212 ± 0.086
51. RLRTTITPEQLEILYQKYLLDSNPTRKMLDHIAHEVGLKKRVVQVWFWNTRARERK  -0.217 ± 0.091
52. RLRTTITPEQLEILYQKYLWDSNPTRKMLDHIAHEVGLKKRVVQVWFQNTRARERK  -0.227 ± 0.088
53. RLRTTITPEQLEILYQKYQLDSNPTRKMLDHIAHEVGLKKRVVQVWFQNTRARERK  -0.233 ± 0.13
54. RLRTTITPGQLEILYQKYLLDSNPTRKMLDHIAHEVGLKKRVVQVWFQNTRARERK  -0.234 ± 0.081
55. RLRTTITPEQLEILYQKYLLDSNPTRYMLDHIAHEVGLKKRVVQVWFQNTRARERK  -0.241 ± 0.18
56. RLRTTITPEQLEILYQKYLLDSNPTRKMLDHIAHEVGLKKRVVQVWFQNTRAHERK  -0.258 ± 0.15
57. RLRTTITPEQLEILYQKYLLDSNPTRKMLDHIAHEVGLKKRVVQVYFQNTRARERK  -0.261 ± 0.34
58. RLRTTITPEQLEILYQKYLLDSNPTRKMLDHIAHEVGLKKRVVQVWFQNTIARERK  -0.286 ± 0.16
59. RLRTTITPEQLEILYQKYLLDSNPTRKMLDHIAHEVGLKKRHVQVWFQNTRARERK  -0.288 ± 0.17
60. RLRTTITPPQLEILYQKYLLDSNPTRKMLDHIAHEVGLKKRVVQVWFQNTRARERK  -0.293 ± 0.082
61. RLRTTITPEQLEILYQKYLLDSNPTRKMLDHIAHEVGLKKRVVQVWFQNTRLRERK  -0.317 ± 0.086
62. RLRTTITPEVLEILYQKYLLDSNPTRKMLDHIAHEVGLKKRVVQVWFQNTRARERK  -0.321 ± 0.078
63. RLRTTITPEQLEILYQKYLLDSNPTRKMLDHIAHEVGLKKRSVQVWFQNTRARERK  -0.327 ± 0.092
64. RLRLTITPEQLEILYQKYLLDSNPTRKMLDHIAHEVGLKKRVVQVWFQNTRARERK  -0.335 ± 0.11
65. RLRTTITPEQLEILYQKYLLDSNPTRKMLDHIAHEVGLKKRVVQVWFQNTRVRERK  -0.349 ± 0.082
66. RLRTTITPEQLEILYQKYLLDSNPTRKMLDHIAHEVGLKKRVVQAWFQNTRARERK  -0.365 ± 0.096
67. RLRTTITPEQLEILYQKYLLDSNPTRKMLDHIAHEVGLKKRVVQVWFQNTRARPRK  -0.38 ± 0.076
68. RLRTTITPEQLEILYQKYLLDVNPTRKMLDHIAHEVGLKKRVVQVWFQNTRARERK  -0.395 ± 0.081
69. RLRTTITPEQLVILYQKYLLDSNPTRKMLDHIAHEVGLKKRVVQVWFQNTRARERK  -0.396 ± 0.088
70. RLRTTITPEQLEILYQKYLLVSNPTRKMLDHIAHEVGLKKRVVQVWFQNTRARERK  -0.407 ± 0.099
71. RLRTTITPEQLEILYQKYLLDSNPTRKMLDHIAHEVGLKKRVVQVWFQHTRARERK  -0.412 ± 0.24
72. RLRTTITPWQLEILYQKYLLDSNPTRKMLDHIAHEVGLKKRVVQVWFQNTRARERK  -0.516 ± 0.11
73. RLRTTITPEQLEILYQKYLLDSNPTRKMLDHIAHEVMLKKRVVQVWFQNTRARERK  -0.53 ± 0.12
74. RLRTTITPEQLEILYQKYLLDSNPTRKMLDHIAHEVGLKKRVVQVWFQNTRARNRK  -0.531 ± 0.1
75. RLRTTITPEQLEILYQKYLLDSNPTRKMLPHIAHEVGLKKRVVQVWFQNTRARERK  -0.543 ± 0.12
76. RLRTTITPEQLEILYQKYLLDSNYTRKMLDHIAHEVGLKKRVVQVWFQNTRARERK  -0.548 ± 0.19
77. RLRTTITPEQLEILYQKYLLDSNPLRKMLDHIAHEVGLKKRVVQVWFQNTRARERK  -0.552 ± 0.095
78. RLRTTITPEQLEIDYQKYLLDSNPTRKMLDHIAHEVGLKKRVVQVWFQNTRARERK  -0.568 ± 0.25
79. RLRTTITPEQLEILYQKYLLDSNFTRKMLDHIAHEVGLKKRVVQVWFQNTRARERK  -0.644 ± 0.17
80. RLRTTITPEQLEILYQDYLLDSNPTRKMLDHIAHEVGLKKRVVQVWFQNTRARERK  -0.651 ± 0.2
81. RLRTTITPEPLEILYQKYLLDSNPTRKMLDHIAHEVGLKKRVVQVWFQNTRARERK  -0.717 ± 0.081
82. RLRTTITPEQLEILYQKYLLWSNPTRKMLDHIAHEVGLKKRVVQVWFQNTRARERK  -0.741 ± 0.12
83. RLRTTITPEQLEILYQKYLLDSNPRRKMLDHIAHEVGLKKRVVQVWFQNTRARERK  -0.753 ± 0.093
84. RLRTTITPEQLEILYQKYLLDSNPTRKMLDHIAHEVGLWKRVVQVWFQNTRARERK  -0.77 ± 0.11
85. RLRTTITPEQLEILYQKYLLDSNPTRKMPDHIAHEVGLKKRVVQVWFQNTRARERK  -0.8 ± 0.15
86. RLRTTITPEQLEILYQKYLLDSNPTRKMLDHIAHEVGLKKRVVQVWFFNTRARERK  -0.802 ± 0.24
87. RLRTTITPEQLEILYQKYLLDSNPTRKMLDHIAHEVGLKKRVVQVWKQNTRARERK  -0.812 ± 0.21
88. RLRTTITPEQLEILYQKYLLDSNPTRKMLDHIAHEVGRKKRVVQVWFQNTRARERK  -0.846 ± 0.086
89. RLRTTITPEQLEILYQKYLLDSNPTRKMLDHIAHEDGLKKRVVQVWFQNTRARERK  -0.853 ± 0.2
90. RLRTTITPEQLEILYQKRLLDSNPTRKMLDHIAHEVGLKKRVVQVWFQNTRARERK  -0.865 ± 0.11
91. RLRTTITPEQLEILYQKYLLDSNPTRKMLDHIAHEVGLKKRVMQVWFQNTRARERK  -0.889 ± 0.15
92. RLRTTITPEQLEILYQKYLLDSNKTRKMLDHIAHEVGLKKRVVQVWFQNTRARERK  -0.935 ± 0.21
93. RLRTTITPEQLEILYQKYLLDSNPTRKMLDHIAHNVGLKKRVVQVWFQNTRARERK  -1.01 ± 0.28
94. RLRTTITPEQLEILYQKYLLDSNPTRKMLDHIAHEVGLKKRVRQVWFQNTRARERK  -1.03 ± 0.11
